B1: recombinant HCMV pUL50 (His-tagged) (natural protein)
chain: MEMNKVLHQDLVQATRRILKLGPSELRVTDAGLICKNPNYSVCDAMLKTDTVYCVEYLLSYWESRTDHVPCFIFKNTGCAVSLCCFVRAPVKLVSPARHVGEFNVLKVNESLIVTLKDIEEIKPSAYGVLTKCVVRKSNSASVFNIELIAFGPENEGEYENLLRELYAKKAASTS
notes: also called His-tagged pUL50

Assay [1] deals with T1, Fluo-NLS-CPP (fluoresceinylated; pUL53 NLS 18-27 joined to HIV-1 Tat 47-59) (human cytomegalovirus (HCMV) | human …).
T1 construct: also called Fluo-NLS-CPP peptide; source: synthetic peptide (Fmoc solid-phase synthesis, HPLC purified)
The assay is described as follows: fluorescence polarisation; 25 nM N-terminally fluoresceinylated peptide; recombinant pUL50 in two-fold serial dilutions from 20 µM; 0.1 M PB, 150 mM NaCl, 1 mM TCEP, pH 7.2, 0.01% Tween 20. The conditions noted are these: both partners purified. In general terms: In fluorescence polarisation assays a small probe gives low polarisation when free and higher when bound to something large.

Assay [2] concerns the target B1. Kind of assay: ELISA; competition: pUL53 (1 µg/mL) coated on Immulon plates; peptide in serial dilutions from 10 µM together with His-tagged pUL50 (0.78 µg/mL) for 2.5 h; detection with anti-His-HRP; 0.1 M phosphate buffer pH 7.2, 0.1% BSA, 0.01% Tween 20. To be noted: both partners purified. A general note: In an ELISA, binding on a coated surface is turned into a signal by an enzyme label.

What is called Kd is a measure of binding affinity in units of concentration. By IC50 is commonly meant the concentration that gives 50% inhibition.

Take B1: the dissociation constant Kd in assay [1] was > 10000 nM.

B2: Hook peptide (acetylated pUL53 hook peptide, residues 59-87) (peptide)
peptide: Ac-LTLHDLHDIFREHPELELKYLNMMKMAIT-NH2
notes: source: synthetic peptide (Fmoc solid-phase synthesis, HPLC purified)
Consider B2, for which, in assay [2], the IC50 came to 125 nM.

These data come from paper PMC9505826, “A Peptide Inhibitor of the Human Cytomegalovirus Core Nuclear Egress Complex” (Pharmaceuticals, 2022).
